Test results from patent publication US20190309074A1, “DEGLYCOSYLATED ANTIBODY SPECIFICALLY BINDING TO CLEC14A AND USES THEREOF” (WOORI TECHNOLOGIES CORPORATION, priority 2016, published 2019).
Numbering of substitutions follows the chain as printed. Each block holds one molecule with its values, some of them ahead of it.

How the values were obtained:
[1] = test system: VEGF-dependent microvessel formation; test: mouse Matrigel plug assay, VEGF-dependent microvessel formation; assay type: in vivo
Experimental: In order to observe in vivo efficacies of deglyco C1 IgG on VEGF-dependent angiogenesis, a mouse Matrigel model was established, hemoglobin level was measured as a marker of microvessel formation, and inhibitory activities against microvessel formation of deglyco C1 IgG and bevacizumab were compared by a mouse Matrigel plug assay.

[2] = test system: HCT116 human colorectal cancer cells; test: Matrigel plug angiogenesis assay, CD31 microvessel density; assay type: in vivo; settings: single dose of 5 mg/kg, 14 days
Experimental: (§1) Matrigel plug angiogenesis assay was conducted in the presence of deglyco C1 IgG or bevacizumab with a single dose of 5 mg/kg or the absence thereof using HCT116 human colorectal cancer cells and bevacizumab-applied HCT116 human colorectal cancer cells (HCT116 and HCT116/Beva). 14 days later, the Matrigel plug was removed, and immunohistochemistry was conducted on CD31 and microvascular markers. A microvessel density was measured by quantifying CD31 positive per field in an image each obtained by a confocal microscope.

HCT116/Beva cells = test: as above; assay type: in vivo; settings: single dose of 5 mg/kg, 14 days
Experimental: as §1

[3] = test system: VEGF-dependent blood vessel growth in rat aorta; test: ex vivo rat aortic ring assay; settings: cultured in combination with VEGF
Experimental: In order to further investigate effects of deglyco C1 IgG on VEGF-dependent angiogenesis, ex vivo rat aortic ring assay was conducted in the presence or absence of deglyco C1 IgG and bevacizumab. Blood vessels were almost not grown in the rat aorta in endothelial basal medium (EBM), whereas most blood vessels were grown in the rat aorta under VEGF expression conditions.

U87 human glioma = test: U87 tumor growth; assay type: in vivo; settings: measured weekly for one month
CFPAC-1 cells = test: tumor cell-derived Matrigel plug angiogenesis assay; assay type: in vivo, mouse; settings: single dose of 10 mg/kg, 2 weeks, nude mice
Experimental: (§2) In order to investigate in vivo effects of deglyco C1 IgG on tumor angiogenesis, tumor cell-derived Matrigel plug angiogenesis assay was conducted on thymus-removed nude mice. SNU182- and CFPAC-1 cells and U87 human glioma cells containing Matrigel were transplanted into thymus-removed nude mice in the presence of deglyco C1 IgG and bevacizumab with a single dose of 10 mg/kg or in the absence thereof. 2 weeks later, the Matrigel plug was removed and the total hemoglobulin content of each group was measured with an ELISA reader.

SNU182 cells = test: as above; assay type: in vivo, mouse; settings: single dose of 10 mg/kg, 2 weeks, nude mice
Experimental: as §2

U87 human glioma cells = test: as above; assay type: in vivo, mouse; settings: single dose of 10 mg/kg, 2 weeks, nude mice
Experimental: as §2

HUVECs = test: HUVEC viability (cell counting Kit-8); assay type: cell-based, human; settings: 2 days
Experimental: In order to evaluate effects of deglyco C1 IgG on toxicity of endothelial cells, after treatment with deglyco C1 IgG, viability of HUVECs was measured. Viability was measured in accordance with the manufacturer's manual through cell counting Kit-8 (#CK04-13, Dojindo Laboratories, Kumamoto, Japan).

[4] = biological target: T1, mouse CLEC14a on mouse aortic endothelial cells (MAECs) (mouse, UniProt Q8VCP9 22-459); test: flow cytometry on MAEC
T1 construct: whole, on cells
T1 sequence (looked up): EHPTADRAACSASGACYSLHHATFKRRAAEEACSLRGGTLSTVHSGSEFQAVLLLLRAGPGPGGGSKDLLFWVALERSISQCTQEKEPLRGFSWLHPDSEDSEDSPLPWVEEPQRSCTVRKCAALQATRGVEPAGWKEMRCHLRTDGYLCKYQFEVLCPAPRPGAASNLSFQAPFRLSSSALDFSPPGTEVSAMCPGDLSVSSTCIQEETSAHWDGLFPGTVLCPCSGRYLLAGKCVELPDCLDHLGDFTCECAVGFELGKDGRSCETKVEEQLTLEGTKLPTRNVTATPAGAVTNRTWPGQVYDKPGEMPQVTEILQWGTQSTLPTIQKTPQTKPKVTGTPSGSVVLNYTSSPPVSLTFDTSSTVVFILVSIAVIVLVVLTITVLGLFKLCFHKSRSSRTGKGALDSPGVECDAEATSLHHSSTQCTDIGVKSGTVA
Experimental: (§3) In order to identify cross-species reactivity of the optimized antibodies, HUVECs (human umbilical vein endothelial cells) and MAECs (mouse aortic endothelial cells) were each cultured, the two cell groups were treated with 20 ug/ml of the parent antibody (original C1), deglyco C1, and clones 1, 13 and 16, and whether or not binding ability exists on the surface of two types of cells was identified by flow cytometry.

[5] = biological target: T2, human CLEC14a on human umbilical vein endothelial cells (HUVECs) (human, UniProt Q86T13 22-490); test: flow cytometry on HUVEC
T2 construct: whole, on cells; also called CLEC14a on HUVEC surfaces
T2 sequence (looked up): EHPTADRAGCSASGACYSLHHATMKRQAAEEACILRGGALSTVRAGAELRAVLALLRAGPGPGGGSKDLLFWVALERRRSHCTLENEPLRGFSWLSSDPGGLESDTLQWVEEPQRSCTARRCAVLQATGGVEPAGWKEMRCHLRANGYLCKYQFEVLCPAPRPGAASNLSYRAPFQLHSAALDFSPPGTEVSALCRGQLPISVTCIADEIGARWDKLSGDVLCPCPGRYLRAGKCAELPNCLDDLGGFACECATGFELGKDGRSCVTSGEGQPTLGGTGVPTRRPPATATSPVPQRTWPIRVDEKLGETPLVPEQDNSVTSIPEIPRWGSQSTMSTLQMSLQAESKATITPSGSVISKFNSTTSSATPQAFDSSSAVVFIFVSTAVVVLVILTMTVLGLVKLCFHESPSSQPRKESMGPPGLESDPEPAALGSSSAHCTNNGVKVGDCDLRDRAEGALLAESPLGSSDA
Experimental: as §3

hclec14a-ECD-myc [6] = biological target: T3, hclec14a-ECD-myc (human, UniProt Q86T13 22-397); test: biolayer interferometry, Octet RED96
T3 construct: extracellular domain; Purified protein; also called extracellular domain of human clec14a; not shown: myc tag
T3 sequence (looked up): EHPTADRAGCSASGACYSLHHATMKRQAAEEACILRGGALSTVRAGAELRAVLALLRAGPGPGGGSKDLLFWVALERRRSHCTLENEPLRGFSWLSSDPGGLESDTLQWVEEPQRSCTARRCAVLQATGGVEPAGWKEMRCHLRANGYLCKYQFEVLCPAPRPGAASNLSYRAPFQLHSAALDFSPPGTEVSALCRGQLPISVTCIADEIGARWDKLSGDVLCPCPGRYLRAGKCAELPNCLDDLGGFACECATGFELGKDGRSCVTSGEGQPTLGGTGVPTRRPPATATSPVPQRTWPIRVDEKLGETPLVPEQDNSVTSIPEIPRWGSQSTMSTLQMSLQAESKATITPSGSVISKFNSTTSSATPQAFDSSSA

mclec14a-CTLD-Fc = biological target: T4, mclec14a-CTLD-Fc (mouse, UniProt Q8VCP9 31-172, limits assumed); test: ELISA on mclec14a-CTLD-Fc
T4 construct: domain: C-type lectin-like domain (CTLD); also called mouse clec14a-CTLD-Fc; mouse CTLD; not shown: Fc
T4 sequence (looked up): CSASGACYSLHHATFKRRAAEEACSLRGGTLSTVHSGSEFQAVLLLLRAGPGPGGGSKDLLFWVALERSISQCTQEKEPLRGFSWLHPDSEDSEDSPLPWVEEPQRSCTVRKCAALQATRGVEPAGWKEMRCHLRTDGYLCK

hclec14a-ECD-myc [7] = biological target: T3, hclec14a-ECD-myc; test: biolayer interferometry (Octet RED96), curves at 62.5, 31.25, 15.625 and 7.8125 nM
[8] = biological target: T2, human CLEC14a on human umbilical vein …; test: cell ELISA on HUVECs coated on the plate
Experimental: In order to analyze action mechanisms of deglyco C1 IgG at a molecule-scale, specifically, in angiogenesis, HUVECs were treated with hclec14a-CTLD-Fc-HRP (HRP-labeled hclec14a-CTLD-Fc) in the absence or presence of an increasing concentration of parent antibody IgG or deglyco C1 IgG.

hclec14a-ECD-myc [9] = biological target: T3, hclec14a-ECD-myc; test: ELISA, hclec14a-CTLD-Fc-HRP with hclec14a-ECD
Experimental: In addition, hclec14a-CTLD-Fc-HRP was incubated together with purified hclec14a-ECD in the presence of an increasing concentration of parent antibody IgG or deglyco C1 IgG, or in the absence thereof.

Molecule: bevacizumab [reference compound]
- hemoglobin content (microvessel formation) [1]: significantly reduced a hemoglobin content
- microvessel formation (CD31 positive per field), HCT116 [2]: significantly reduced microvessel formation ability
- microvessel formation (CD31 positive per field), HCT116/Beva (HCT116/Beva cells): not suppressed
- number of blood vessels grown in the rat aorta [3]: reduced the number of blood vessels grown in the rat aorta
- tumor size of U87 cells (U87 human glioma): significantly reduces the tumor sizes
- hemoglobin content, CFPAC-1-derived (CFPAC-1 cells): significantly reduced hemoglobin
- hemoglobin content, SNU182-derived (SNU182 cells): significantly reduced hemoglobin
- hemoglobin content, U87-derived (U87 human glioma cells): significantly reduced hemoglobin

Molecule: O=c1[nH]cc(F)c(=O)[nH]1 [Opti 5-FU, 5-fluorouracil, reference compound]
- viability of HUVECs (HUVECs): significantly reduced viability

- binding result [4]: binds
- binding result [5]: binds
B1: Opti 13 (antibody, V domains shown)
VH: EVQLVESGGGLVQPGGSLRLSCAVSGFTFSGYDMSWIRQAPGKGLEWVAGIYPDGGNTYYADSVKGRFTISRDDSKNTFYLQMNSLRAEDTAVYYCARGAMEQVLGPFDLWGQGTLVTVSS
VL: DIQLTQSPSSLSASVGDRVTITCTGSSSNIGRCGVTWYQQKPGKAPKLLIYADSHRPSGVPSRFSGSGSGTDFTLTISSLQPEDFATYYCGAWDDSLSGYVFGQGTKVEIKR
notes: IgG from HEK293 cells; also called clone 13; optimized antibody clone 13

- binding result [4]: binds
- Kd (hclec14a-ECD-myc [6]): 6 nM
- binding result (mclec14a-CTLD-Fc): binds
- Kd (hclec14a-ECD-myc [7]): 6.07 nM
- koff (hclec14a-ECD-myc [7]): 0.000297 s⁻¹
- kon (hclec14a-ECD-myc [7]): 49000 M⁻¹ s⁻¹
B2: deglyco C1 IgG (antibody, V domains shown)
VH: B1 VH with M101T, E102W, Q103W, L110Y
VL: B1 VL
notes: IgG expressed in HEK293 cells; In some assays conjugated with HRP; also called Deg C1; deglyco C1 IgG-HRP (HRP-conjugated form)

- binding result [4]: binds
- binding result [5]: binds
B3: Opti 1 (antibody, V domains shown)
VH: B1 VH with M101A, E102T, Q103K, P107K, L110C
VL: B1 VL
notes: IgG from HEK293 cells; also called optimized antibody clone 1

- binding result [8]: binds
- binding result (hclec14a-ECD-myc [9]): binds
B4: hclec14a-CTLD-Fc (Fc fusion, human, UniProt Q86T13 31-172, looked up)
chain: CSASGACYSLHHATMKRQAAEEACILRGGALSTVRAGAELRAVLALLRAGPGPGGGSKDLLFWVALERRRSHCTLENEPLRGFSWLSSDPGGLESDTLQWVEEPQRSCTARRCAVLQATGGVEPAGWKEMRCHLRANGYLCK
notes: domain: C-type lectin-like domain (CTLD); also called human clec14a-CTLD-Fc; human CTLD; not shown: Fc
